Laboratory results taken from patent publication US20030049646A1 (METROHEALTH SYSTEM, published 2003).

B1: HERG N-terminus (amino acids 1-396), in pGBT9 (other, UniProt P04386 1-147, looked up)
chain: MKLLSSIEQACDICRLKKLKCSKEKPKCAKCLKNNWECRYSPKTKRSPLTRAHLTEVESRLERLEQLFLLIFPREDLDMILKMDSLQDIKALLTGLFVQDNVNKDAVTDRLASVETDMPLTLRQHRISATSSSEESSNKGQRQLTVSMPVRRGHVAPQNTFLDTIIRKFEGQSRKFIIANARVENCAVIYCNDGFCELCGYSRAEVMQRPCTCDFLHGPRTQRRAAAQIAQALLGAEERKVEIAFYRKDGSCFLCLVDVVPVKNEDGAVIMFILNFEVVMEKDMVGSPAHDTNHRGPPTSWLAPGRAKTFRLKLPALLALTARESSVRSGGAGGAGAPGAVVVDVDLTPAAPSSESLALDEVTAMDNHVAGLGPAEERRALVGPGSPPRSAPGQLPSPRAHSLNPDASGSSCSLARTRSRESCASVRRASSADDIEAMRAGVLPPPPRHASTGAMHPLRSGLLNSTSDSDLVRYRTISKIPQITLNFVDLKGDPFLASPTSDREIIAPKIKERTHNVTEKVTQVLSLGADVLPEYKLQAPRIH
notes: also called N-terminus of the delayed rectifier K+ channel, HERG
B2: Kvβ1C (carboxyl terminal 329 amino acids of the Kvβ1 subfamily), in pGBT9 (other, UniProt P04386 1-147, looked up)
chain: MKLLSSIEQACDICRLKKLKCSKEKPKCAKCLKNNWECRYSPKTKRSPLTRAHLTEVESRLERLEQLFLLIFPREDLDMILKMDSLQDIKALLTGLFVQDNVNKDAVTDRLASVETDMPLTLRQHRISATSSSEESSNKGQRQLTVSHRNLGKSGLRVSCLGLGTWVTFGGQISDEVAERLMTIAYESGVNLFDTAEVYAAGKAEVILGSIIKKKGWRRSSLVITTKLYWGGKAETERGLSRKHIIEGLKGSLQRLQLEYVDVVFANRPDSNTPMEEIVRAMTHVINQGMAMYWGTSRWSAMEIMEAYSVARQFNMIPPVCEQAEYHLFQREKVEVQLPELYHKIGVGAMTWSPLACGIISGKYGNGVPESSRASLKCYQWLKERIVSEEGRKQQNKLKDLSPIAERLGCTLPQLAVAWCLRNEGVSSVLLGSSTPEQLIENLGAIQVLPKMTSHVVNEIDNILRNKPYSKKDYRS
notes: also called C-terminus of Kvβ1
B3: KChAP-Y (partial clone of KChAP from W310 to the C-terminus), in pGAD10 (other, not shown: large carriers)
chain: WTCPVCDKKAPYESLIIDGLFMEILNSCSDCDEIQFMEDGSWCPMKPKKEASEVCPPPGYGLDGLQYSPVQEGNQSENKKRVEVIDLTIESSSDEEDLPPTKKHCPVTSAAIPALPGSKGALTSGHQPSSVLRSPAMGTLGSDFLSSLPLHEYPPAFPLGADIQGLDLFSFLQTESQHYSPSVITSLDEQDTLGHFFQFRGTPPHFLGPLAPTLGSSHRSATPAPAPGRVSSIVAPGSSLREGHGGPLPSGPSLTGCRSDVISLD
notes: also called KChAP-Y plasmid
B4: Kv2.1 N-terminus (amino acids 1-168), in pGBT9 (other, UniProt P04386 1-147, looked up)
chain: MKLLSSIEQACDICRLKKLKCSKEKPKCAKCLKNNWECRYSPKTKRSPLTRAHLTEVESRLERLEQLFLLIFPREDLDMILKMDSLQDIKALLTGLFVQDNVNKDAVTDRLASVETDMPLTLRQHRISATSSSEESSNKGQRQLTVSMPAGMTKHGSRSTSSLPPEPMEIVRSKACSRRVRLNVGGLAHEVLWRTLDRLPRTRLGKLRDCNTHDSLLQVCDDYSLEDNEYFFDRHPGAFTSILNFYRTGRLHMMEEMCALSFSQELDYWGIDEIYLESCCQARYHQKKEQMNEELKREAETLREREGEEFDNTCC

Tests used:
Assay in all cases: yeast two-hybrid (Y190, pGAD10 x pGBT9), β-galactosidase filter assay
[1] = target: T1, KChAP (K+ Channel Associated Protein), full length, in pGAD10 (rat, UniProt O70260 55-628)
T1 construct: Yeast two-hybrid construct; also called full length KChAP
T1 sequence: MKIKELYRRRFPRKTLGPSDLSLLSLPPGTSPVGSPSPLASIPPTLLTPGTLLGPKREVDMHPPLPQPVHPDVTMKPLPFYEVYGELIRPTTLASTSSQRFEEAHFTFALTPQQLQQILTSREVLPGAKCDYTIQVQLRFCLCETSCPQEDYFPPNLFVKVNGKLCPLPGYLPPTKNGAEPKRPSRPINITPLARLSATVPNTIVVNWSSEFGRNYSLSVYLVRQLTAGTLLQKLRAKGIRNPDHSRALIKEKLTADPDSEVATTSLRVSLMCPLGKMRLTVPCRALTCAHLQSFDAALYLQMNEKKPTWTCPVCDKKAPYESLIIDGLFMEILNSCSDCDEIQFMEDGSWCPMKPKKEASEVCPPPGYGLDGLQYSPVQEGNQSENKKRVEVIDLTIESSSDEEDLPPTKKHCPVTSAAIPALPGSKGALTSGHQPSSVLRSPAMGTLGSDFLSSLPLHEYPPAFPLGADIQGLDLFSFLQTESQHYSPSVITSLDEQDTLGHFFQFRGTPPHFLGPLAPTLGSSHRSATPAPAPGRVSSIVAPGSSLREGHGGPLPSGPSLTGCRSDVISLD
Method: (§1) In the indirect procedure, the yeast Matchmaker Two-Hybrid System Clontech and cDNA molecules encoding KChAP and KChAP-Y were used. The binding specificity between full length KChAP or KChAP-Y and the following Kvα, Kvβ and other K+ channel subunit fragments were determined: Kvβ1.2 (amino acids 1-408), Kvβ1.2-N terminus (amino acids 1-79), Kvβ1C (carboxyl terminal 329 amino acids of the Kvβ1 subfamily), Kvβ2 (amino acids 1-367); Kv1.1-N terminus (amino acids 1-168), Kv1.2 N-terminus (amino acids 1-124), Kv1.4 N-terminus (amino acids 1-305), Kv1.4 C-terminus (amino acids 562-654), Kv1.5 N-terminus (amino acids 1-248), Kv2.1 N-terminus (amino acids 1-168), Kv2.2 N-terminus (amino acids 1-185), Kv6.1 N-terminus (amino acids 1-209), Kir2.2 N-terminus (amino acids 1-86), and HERG N-terminus (amino acids 1-396). The ability of human Gα-binding protein (GBP) to bind to these fragments was also determined.
(§2) Protein-protein interactions were tested by co-transformation of the yeast host strain Y190 with a pGAD10 plasmid containing inserts encoding KChAP-Y, KChAP or GBP with a pGBT9 plasmid containing an insert encoding one of the K+ channel protein fragments. pGBT9 is a GAL4 DNA binding domain [BD] vector. Co-transformants were plated on medium lacking trp and leu and grown for 2.5 days at 30° C. Yeast colonies were lifted to paper filters and assayed for β-galactosidase activity. Appearance of blue color within 8 hours was scored as a positive interaction between the proteins encoded by the two plasmids.

[2] = target: T2, human Gu binding protein (GBP), in pGAD10 (human, UniProt O75925 55-651, limits assumed)
T2 construct: Comparison protein, about 50% homologous to KChAP
Method: as §1, §2

[3] = target: B1
Method: as §1, §2

T2 sequence (O75925 55-651 limits assumed): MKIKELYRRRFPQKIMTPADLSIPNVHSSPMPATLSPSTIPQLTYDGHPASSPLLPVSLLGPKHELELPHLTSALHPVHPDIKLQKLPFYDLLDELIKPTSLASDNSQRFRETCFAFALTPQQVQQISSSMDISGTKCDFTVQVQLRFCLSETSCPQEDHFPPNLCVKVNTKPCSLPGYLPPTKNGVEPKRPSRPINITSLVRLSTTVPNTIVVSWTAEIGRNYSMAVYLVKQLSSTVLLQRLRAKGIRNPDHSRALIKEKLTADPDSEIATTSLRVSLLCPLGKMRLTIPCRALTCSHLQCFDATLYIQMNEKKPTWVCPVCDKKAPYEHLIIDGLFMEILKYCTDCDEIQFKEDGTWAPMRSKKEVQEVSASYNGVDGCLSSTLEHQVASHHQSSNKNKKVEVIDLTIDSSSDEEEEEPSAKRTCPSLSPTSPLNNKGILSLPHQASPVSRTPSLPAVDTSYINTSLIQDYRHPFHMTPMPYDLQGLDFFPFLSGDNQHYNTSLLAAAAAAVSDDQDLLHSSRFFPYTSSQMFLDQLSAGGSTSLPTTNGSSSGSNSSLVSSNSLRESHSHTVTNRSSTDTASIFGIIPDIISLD

Row | Binder | binding result [1] | binding result [2] | binding result [3]
1 | B1 | no binding | no binding | 
2 | B2 |  | no binding | 
3 | B3 |  |  | no binding
4 | B4 |  | no binding | 
